Measurements as given in US7118737.

Target: CCR5 (UniProt P51681)
Assay: cell-based or functional assay

Sequence of UniProt P51681 (P51681 whole entry): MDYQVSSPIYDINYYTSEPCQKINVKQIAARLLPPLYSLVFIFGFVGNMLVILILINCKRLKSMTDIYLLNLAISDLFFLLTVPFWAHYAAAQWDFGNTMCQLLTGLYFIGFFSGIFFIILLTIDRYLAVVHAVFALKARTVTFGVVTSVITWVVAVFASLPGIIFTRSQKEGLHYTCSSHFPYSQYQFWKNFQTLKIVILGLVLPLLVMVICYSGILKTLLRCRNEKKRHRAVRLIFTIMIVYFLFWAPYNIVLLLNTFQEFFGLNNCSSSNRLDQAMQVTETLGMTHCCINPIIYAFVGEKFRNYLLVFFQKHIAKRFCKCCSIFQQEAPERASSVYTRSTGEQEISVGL

“NNY-RANTES (2-68) (from UniProt P13501 25-91) (ligand)” was tested, and the EC50, inhibition of HeLa P4-CCR5/HeLa-Env-ADA cell fusion (β-galactosidase reporter) was 0.323 nM.

Work on “AOP-RANTES (2-68) (from UniProt P13501 25-91) (ligand)” yielded an EC50, inhibition of HeLa P4-CCR5/HeLa-Env-ADA cell fusion (β-galactosidase reporter) of 1.81 nM.
